Test results taken from patent US6884600B1, “Protein phosphatase-1 catalytic subunit interactions” (Medical Research Council London, priority 1996, dated 2005).

B1: M110-(M1-S477): rat aorta M110 fragment, residues 1-477, GST tag removed (protein, UniProt Q10728 1-477, looked up, fragment)
chain: MKMADAKQKRNEQLKRWIGSETDLEPPVVKRQKTKVKFDDGAVFLAACSSGDTDEVLKLLHRGADINYANVDGLTALHQACIDDNVDMVKFLVENGANINQPDNEGWIPLHAAASCGYLDIAEFLIGQGAHVGAVNSEGDTPLDIAEEEAMEELLQNEVNRQGVDIEAARKEEERIMLRDARQWLNSGHISDVRHAKSGGTALHVAAAKGYTEVLKLLIQAGYDVNIKDYDGWTPLHAAAHWGKEEACRILVDNLCDMETVNKVGQTAFDVADEDILGYLEELQKKQNLLHSEKRDKKSPLIESTANMENNQPQKTFKNKETLIIEPEKNASRIESLEQEKADEEEEGKKDESSCSSEEDEEDDSESEAETDKTKPMASVTNAHTASTQAAPAAVTTPTLSSNQGTPTSPVKKFPTSTTKISPKEEERKDESPASWRLGLRKTGSYGALAEITASKEAQKEKDTAGVIRSASSPRLS
B2: M110-(K933-I1004): C-terminal 72 residues of the chicken gizzard M110 subunit (protein, UniProt Q90623 933-1004, looked up, fragment)
chain: KLYEQILAENEKLKAQLHDTNMELTDLKLQLEKTTQRQERFADRSLLEMEKRVSGKSQYLLGGKKSSRKKDI
B3: M110-(R714-I1004): C-terminal 291 residues of the chicken gizzard M110 subunit (protein)
chain: RSTRTREQENEEKEKEEKEKQDKEKQEEKKESETKDDDYRQRYSRTVEEPYHRYRPTSTSTSTSSTSSLSTSTSSLSSSSQLNRPNSLIGITSAYSRSGTKESEREGGKKEEEKEEDKSQPKSIRERRRPREKRRSTGVSFWTQDSDENEQEHQSDSEEGTNKKETQSDSLSRYDTGSLSVSSGDRYDSAQGRSGSQSYLEDRKPYCSRLEKEDSTDFKKLYEQILAENEKLKAQLHDTNMELTDLKLQLEKTTQRQERFADRSLLEMEKRVSGKSQYLLGGKKSSRKKDI
B4: GST-M21: GST fusion of the chicken gizzard M21 subunit (M1-K186) (protein)
chain: MSSLFTRSKEYTRSRKSQSDSPPSSPSPIAKTLRHERLSRLEAATTPATSDSYSDRASSRSSAYSRRENRLAALSSRAEEESNRDYKKLYESALSENQKLKSKLQEAQLELADIKSKLEKAAQQKHEKTSDRSSMLEMEKREKRALERKLSEMEEEMKILTELKSDNQRLKDENGALIRVISKLSK
modifications: left off: a dimerising Fc or GST; small tags and cut ends
B5: GST-M110-(M377-K976): GST fusion of the C-terminal 600 residues of the M110 subunit from rat aorta (protein)
chain: MASVTNAHTASTQAAPAAVTTPTLSSNQGTPTSPVKKFPTSTTKISPKEEERKDESPASWRLGLRKTGSYGALAEITASKEAQKEKDTAGVIRSASSPRLSSSLDNKEKEKDNKGTRLAYVAPTIPRRLGSTSDIEEKENRESSNLRTSSSYTRRKWEDDLKKNSSINEGSTYHRSTSNRLWAEDSTEKEKDSAPTAATILVAPTVVSAAASSTTALTTTTAGTLSSTSEVRERRRSYLTPVRDEESESQRKARSRQARQSRRSTQGVTLTDLQEAEKTIGRSRSTRTREQENEEKDKEEKEKQDKEKQEEKKESEVSREDEYKQKYSRTYDETYARYRPVSTSSSSTPSSSSLSTLGSSLYASSQLNRPNSLVGITSAYSRGLTKDNEREGEKKEEEKEGEDKSQPKSIRERRRPREKRRSTGVSFWTQDSDENEQERQSDTEDGSSKRDTQTDSVSRYDSSSTSSSDRYDSLLGRSASYSYLEERKPYGSRLEKDDSTDFKKLYEQILAENEKLKAQLHDTNMELTDLKLQLEKATQRQERFADRSLLEMEKRERRALERRISEMEEELKMLPDLKADNQRLKDENGALIRVISKLSK
modifications: left off: a dimerising Fc or GST
notes: GST fusion of the C-terminal 600 residues of the M110 subunit from rat aorta
B6: complex between GST-M21 and M110-(R714-I1004): complex purified on glutathione-Sepharose from GST-M21 mixed with bacterial extract expressing M110-(R714-I1004) (protein)
GST-M21 (M21 part): B4 chain
M110-(R714-I1004): B3 chain
modifications: left off: a dimerising Fc or GST; small tags and cut ends

What follows are molecules tested on M21 subunit (assay: Far Western blotting: interaction with the M21 subunit). Details: probe 0.2 μg/ml.
Assay type: binding, chicken
Experimental: A) PP1M 5 μg (track 1), 10 μg bacterial extract containing M110-(R714-I1004) (track 2), MBP-M110-(R714-I004) 1 μg (track 3), MBP-M110-(R714-L934) 1 μg (track 4), MBP-M110-(K933-I1004) 1 μg (track 5), MBP 1 μg (track 6), M110-(M1-E309) 2 μg (lane 7) and M110-(M1-S477) 2 μg (track 8) were run on a 12% SDS/polyacrylamide gel and stained with Coomassie Blue. B) same as A) except that 10-fold less protein was electrophoresed and after transfer to nitrocellulose the proteins were probed with digoxigenin-labelled M21 subunit (0.2 μg/ml). C) same as B) except that, after electrophoresis, the proteins were transferred to nitrocellulose and probed with digoxigenin-labelled M21-(M1-L146) (0.2 μg/ml).
A) GST-M21 5 μg (track 1), M21 5 μg (track 2), M21-(M1-L146) 5 μg (track 3), M21-(M1-E110) 20 μg (track 4) and M21-(E110-K186) 5 μg (track 5) were run on 16.5% polyacrylamide gels and stained with Coomassie Blue. The marker proteins ovalbumin (43 kDa) and carbonic anhydrase (29 kDa) are indicated. B) GST-M21 0.5 μg (track 1), M21 0.5 μg (track 2), M21-M1-L146) 0.5 μg (track 3), M21-(M1-E110) 5 μg (track 4) and M21-(E110-K186) 5 μg (track 5) were electrophoresed as in A) and after transfer to nitrocellulose the blots were probed with digoxigenin-labelled MBP-M110-(K933-I1004) (0.2 μg/Ml). C) same as B) except that, after electrophoresis, the proteins were transferred to nitrocellulose and probed with digoxigenin-labelled M21 subunit (0.2 μg/ml).
PP1M (0.5 μAg) was electrophoresed on a 12% SDS/polyacrylamide gel, transferred to nitrocellulose and probed with digoxigenin-labelled M21 subunit (0.2 μg/ml) (track 1) or digoxigenin-labelled M21-(M1-L146) (0.2 μg/ml) (track 2). The positions of the M110 subunit, the M21 subunit and PP1c are marked.
Proteins were labelled with digoxigenin and Far Western analyses carried out as described, except that the digoxigenin-labelled probe was used at a concentration of 0.2 μg/ml instead of 2 μg/ml. SDS/polyacrylamide gel electrophoresis was carried out on 7.5-15% gels according to Laemmli and on 16.5% gels according to Schagger and von Jagow. Protein was estimated according to Bradford.

Q: How did the “recognised by digoxigenin-labelled M21 subunit in Far Western blotting” value (shortened to “recognised … in Far Western blotting”) turn out when B1 was run?
A: Its value is “not”.

Q: How did the “recognised … in Far Western blotting” value turn out when B2 was run?
A: Its value is “recognised”.

Q: B3 was tested. Which “recognised … in Far Western blotting” value did it give?
A: Its value is “recognised”.

Each molecule was assayed against T1, myosin (Gallus gallus, UniProt P10587) (assay: Myosin binding assay (pelleting with myosin)). Details: myosin 1 μM, 15 min 0° C.
T1 construct: from tissue; host or cells: chicken gizzard
Design: species or system chicken
Experimental: The PP1 catalytic subunit (PP1c), PP1M, or PP1M lacking the M21 subunit, PP1M(ΔM21), each at 30 nM, were incubated for 15 min at 0° C. with 1 μM myosin and centrifuged (see Methods of Example 3). […] The results shown are the average (±S.E.M.) for three separate experiments each assayed in duplicate.
(A); PP1M, M110-(M1-S477) and GST-M110-(M377-K976), each at 30 nM were incubated for 15 min at 0° C. with 1 μM myosin and centrifuged. The supernatants (S), resuspended pellets (P) and the suspension before centrifugation (T, total) were electrophoresed on 12% SDS/polyacrylamide gels, transferred to nitrocellulose and immunoblotted with antibodies raised against the PP1M holoenzyme. No protein was pelleted in the absence of myosin (not shown). The positions of the marker proteins myosin heavy chain (200 kDa), glycogen phosphorylase (97 kDa), bovine serum albumin (66 kDa), ovalbumin (43 kDa), carbonic anhydrase (29 kDa) and soybean trypsin inhibitor (20 kDa) are indicated. (B) The experiments were carried out as in (A), except that the M110 fragments and M21 subunit were used at 100 nM, the 8.5 kDa M110-(K933-I1004) fragment was electrophoresed on a 16.5% polyacrylamide gel and immunoblotting was carried out with affinity purified antibodies (see Methods). A small amount of M110-(R714-I1004) pelleted in the absence of myosin. […] No other protein was pelleted in the absence of myosin.
(A); Myosin (1 μM) was mixed with 50 μM, 20 μM or 10 μM M21 subunit to give the molar ratios M21:myosin dimer indicated. After 15 min at 0° C., the solutions were centrifuged and the supernatants (S), resuspended pellets (P) and the suspension before centrifugation (T, total) were electrophoresed on 12% SDS/polyacrylamide gels and stained with Coomassie blue. The positions of the myosin heavy chain (MHC) and the M21 subunit are indicated. The myosin light chains migrate faster than the M21 subunit and are not visible at these loadings.
Myosin binding assays. Myosin (0.5 mg/ml, 1 μM in terms of myosin heavy chains) in 10 mM Hepes pH 7.5, 50 mM KCl, 5 mM MgCl2, 0.1% (by vol) 2-mercaptoethanol, was mixed with PP1M, M21 subunit, or fragments of the M110 and M21 subunits, at the concentrations indicated in figure legends. After incubation for 15 min at 0° C., the solutions were centrifuged for 2 min at 13,000×g, the supernatants removed, and the pellets washed twice in 10 mM Hepes pH 7.5, 50 mM KCl, 5 mM MgCl2, 0.1% (by vol) 2-mercaptoethanol before resuspension in 50 mM Tris-HCl pH 7.5, 0.1 mM EGTA, 0.03% (by mass) Brij 35, 0.6 M NaCl, 0.1% (by vol) 2-mercaptoethanol. Aliquots of the supernatant, the resuspended pellet and the suspension before centrifugation were either assayed for myosin P-light chain phosphatase activity or denatured in SDS and analysed by SDS/polyacrylamide gel electrophoresis.

T1 sequence (P10587 whole entry): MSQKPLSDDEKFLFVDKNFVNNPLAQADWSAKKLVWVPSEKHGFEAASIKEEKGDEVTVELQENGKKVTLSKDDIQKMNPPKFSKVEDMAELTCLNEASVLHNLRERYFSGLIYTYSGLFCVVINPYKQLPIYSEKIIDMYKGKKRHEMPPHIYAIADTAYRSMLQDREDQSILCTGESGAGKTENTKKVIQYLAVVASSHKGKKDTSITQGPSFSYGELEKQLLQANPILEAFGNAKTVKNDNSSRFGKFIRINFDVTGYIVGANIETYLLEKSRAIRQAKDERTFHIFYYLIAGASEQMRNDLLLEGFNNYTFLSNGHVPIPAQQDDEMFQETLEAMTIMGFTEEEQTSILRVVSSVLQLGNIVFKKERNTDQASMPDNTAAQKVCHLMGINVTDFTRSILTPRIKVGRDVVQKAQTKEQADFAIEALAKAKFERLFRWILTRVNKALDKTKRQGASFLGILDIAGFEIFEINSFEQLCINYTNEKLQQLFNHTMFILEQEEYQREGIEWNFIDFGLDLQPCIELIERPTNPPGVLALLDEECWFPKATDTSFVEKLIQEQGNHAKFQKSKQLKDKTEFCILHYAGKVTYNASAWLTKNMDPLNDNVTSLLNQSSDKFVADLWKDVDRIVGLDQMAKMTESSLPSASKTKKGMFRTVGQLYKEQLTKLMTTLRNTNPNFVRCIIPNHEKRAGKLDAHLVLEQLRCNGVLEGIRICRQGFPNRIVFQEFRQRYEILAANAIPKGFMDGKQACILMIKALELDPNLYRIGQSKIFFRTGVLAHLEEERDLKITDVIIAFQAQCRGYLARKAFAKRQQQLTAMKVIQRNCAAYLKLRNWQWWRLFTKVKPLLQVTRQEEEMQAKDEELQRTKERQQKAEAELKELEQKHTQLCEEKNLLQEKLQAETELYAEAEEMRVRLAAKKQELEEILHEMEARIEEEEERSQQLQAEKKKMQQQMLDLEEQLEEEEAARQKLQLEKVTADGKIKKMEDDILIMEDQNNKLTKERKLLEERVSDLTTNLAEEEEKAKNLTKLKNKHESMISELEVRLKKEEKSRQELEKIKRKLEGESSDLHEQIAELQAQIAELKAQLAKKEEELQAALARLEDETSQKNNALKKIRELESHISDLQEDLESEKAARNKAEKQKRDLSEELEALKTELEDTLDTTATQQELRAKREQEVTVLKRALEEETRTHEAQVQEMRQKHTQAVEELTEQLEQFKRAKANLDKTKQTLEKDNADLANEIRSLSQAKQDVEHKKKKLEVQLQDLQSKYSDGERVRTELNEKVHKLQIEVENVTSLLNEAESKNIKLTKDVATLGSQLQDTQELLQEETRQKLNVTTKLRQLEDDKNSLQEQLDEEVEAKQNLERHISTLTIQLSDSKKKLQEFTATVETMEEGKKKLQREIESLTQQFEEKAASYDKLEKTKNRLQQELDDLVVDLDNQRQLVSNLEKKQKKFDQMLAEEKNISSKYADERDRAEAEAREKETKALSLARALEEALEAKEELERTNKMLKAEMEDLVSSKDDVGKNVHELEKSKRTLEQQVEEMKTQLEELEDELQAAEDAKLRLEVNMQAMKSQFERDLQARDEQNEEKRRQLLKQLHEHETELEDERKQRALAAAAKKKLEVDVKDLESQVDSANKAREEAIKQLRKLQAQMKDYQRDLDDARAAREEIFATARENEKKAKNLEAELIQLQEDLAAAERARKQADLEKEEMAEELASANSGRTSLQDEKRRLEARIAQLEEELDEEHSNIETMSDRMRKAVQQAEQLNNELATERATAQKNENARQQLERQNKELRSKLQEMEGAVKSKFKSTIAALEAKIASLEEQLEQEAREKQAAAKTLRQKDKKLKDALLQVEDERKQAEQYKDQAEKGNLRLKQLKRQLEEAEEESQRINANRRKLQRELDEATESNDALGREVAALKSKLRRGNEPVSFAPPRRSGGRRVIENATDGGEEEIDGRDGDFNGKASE
T1 sequence (P02612 whole entry partner): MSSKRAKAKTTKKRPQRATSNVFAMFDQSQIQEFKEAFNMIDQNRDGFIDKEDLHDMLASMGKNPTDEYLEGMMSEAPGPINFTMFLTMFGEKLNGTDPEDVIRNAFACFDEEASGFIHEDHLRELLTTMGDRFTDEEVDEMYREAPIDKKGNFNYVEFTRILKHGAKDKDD
T1 sequence (P02607 whole entry partner): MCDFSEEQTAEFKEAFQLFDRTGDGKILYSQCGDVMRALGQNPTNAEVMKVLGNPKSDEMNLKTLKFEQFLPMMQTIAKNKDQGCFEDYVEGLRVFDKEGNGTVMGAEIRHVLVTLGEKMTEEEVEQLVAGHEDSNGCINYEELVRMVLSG

Q: B4 was tested. Which binding to myosin did it give?
A: The binding to myosin was “bound to myosin”.

Q: B5 was tested. Which binding to myosin did it give?
A: Its binding to myosin is “bound to myosin”.

Q: B1 was tested. Which binding to myosin did it give?
A: The binding to myosin was “did not bind to myosin”.

Q: With B2 as the molecule, how does the binding to myosin read?
A: Its binding to myosin is “did not bind to myosin”.

Q: How did the binding to myosin turn out when B3 was run?
A: Its binding to myosin is “bound to myosin”.

Q: How did the binding to myosin turn out when B6 was run?
A: The binding to myosin was “bound quantitatively to myosin”.
